These results are taken from paper PMC4254802.

Test in all cases: cross-linking
Assay [1] has as its target TACE-B/ADAM10cyto (truncated human TACE with the cytoplasmic domain of ADAM10), Flag-tagged (human) (UniProt O14672).
Assay [2] has as its target endogenous ADAM10 of Cα cells (Chinese hamster (endogenous in Cα/CHO cells)).
In assay [3] the target is endogenous TACE of Cα cells (CHO cells that express TGF-α) (Chinese hamster (endogenous in Cα/CHO cells)).

Turning to “TACE-B/ADAM10cyto (truncated human TACE with the cytoplasmic domain of ADAM10), Flag-tagged (from UniProt O14672 694-748)”, the stoichiometry N in assay [1] was 2.

endogenous ADAM10 of Cα cells (enzyme) came in with a stoichiometry N in assay [2] of 2. In assay [3], “endogenous TACE of Cα cells (CHO cells that express TGF-α) (enzyme)” came in with a stoichiometry N of 2.

Broadly, the stoichiometry N is the number of molecules, sites or subunits per partner or assembly.
